{"source": "patent US20220267427A1", "about": "(SYSMEX, published 2022)", "binders": {"B1": {"name": "K18-624 antibody (antibody, V domains shown)", "VH": "DVQLVESGGGLVQPGGSRKLSCAASGFTFSSFGMHWVRQAPEKGLEWVAYISSGSTTIYYADTVKGRFTISRDNPKNTLFLQMTSLRSEDTAMYYCARRGMITTGAWFAYWGQGTLVTVSA", "VL": "DILLTQSPAILSVSPGERVSFSCRASQRIGTSIHWYQQRTNGSPRLLIKYASESISGIPSRFSGSGSGTDFTLSINSVESEDIADYYCQQSYIWPFTFGSGTKLEIK", "notes": "Mouse monoclonal antibody from a hybridoma (Balb/C mouse immunised with Peptide 1-KLH)"}, "B2": {"name": "K18-328 antibody (antibody, V domains shown)", "VH": "QVHLQQSAAELARPGASVKMSCKASGYTFTNYTIHWIKQRPGQGLEWIGYINPSSGYTDYNQNFKDKTTLTADKSSTTVYMQLSSLTSEDSAVYYCARQIPFAYWGQGTLVTVSA", "VL": "not shown", "notes": "Mouse monoclonal antibody from a hybridoma (immunogen full length rCK18)"}}, "key": {"[1]": {"target": "T1, fCK18 in apoptosis-induced HepG2 cell culture supernatant (human, UniProt P05783 239-397)", "T1 construct": "Natural CK18 fragment from the culture supernatant of apoptosis-induced HepG2 cells (band around 18 KDa); also called fCK18 in apoptosis-inducing cells", "T1 sequence": "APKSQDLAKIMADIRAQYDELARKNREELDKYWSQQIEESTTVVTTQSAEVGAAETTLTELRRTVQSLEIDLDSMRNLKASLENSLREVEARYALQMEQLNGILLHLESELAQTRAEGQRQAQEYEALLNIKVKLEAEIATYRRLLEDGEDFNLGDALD", "assay": "plate ELISA with K18-624 magnetic microbeads, K18-328Fab-ALP detector; fCK18 0.28 ng/mL", "protocol": "Measurement samples of 3-fold dilution series (3-fold to 6561-fold dilution) were prepared from the apoptosis-induced HepG2 cell culture supernatant with a diluent (TBS, pH 7.5, 2% BSA), and fCK18 was measured. […] Based on the prepared calibration curve, fCK18 in the measurement sample was measured.\nThis solution was added to an ELISA plate at 25 μL/well, then each measurement sample was added at 25 μL/well, and the plate was incubated (1500 rpm, RT, 20 min). […] (3) After washing the plate, the HISCL (registered trademark) R4 reagent was added thereto at 50 μL/well, and then the mixture was stirred (1500 rpm, RT, 1 min). Thereafter, the HISCL (registered trademark) R5 reagent was added at 100 μL/well, and then the mixture was stirred (1000 rpm, RT, 10 sec). (4) Luminescence intensity was measured with a plate reader."}, "[2]": {"target": "T1, fCK18 in apoptosis-induced HepG2 cell …", "assay": "HISCL sandwich immunoassay; K18-624 magnetic microbeads capture, K18-328Fab-ALP detector; fCK18 0.28 ng/mL"}, "rfCK18 (239-396) [3]": {"target": "T2, rfCK18 (239-396) (human, UniProt P05783 239-396)", "T2 construct": "Bought (Cloud-Clone-Corp.); captured through an anti-GST or penta HIS antibody, the tag is not described", "T2 sequence": "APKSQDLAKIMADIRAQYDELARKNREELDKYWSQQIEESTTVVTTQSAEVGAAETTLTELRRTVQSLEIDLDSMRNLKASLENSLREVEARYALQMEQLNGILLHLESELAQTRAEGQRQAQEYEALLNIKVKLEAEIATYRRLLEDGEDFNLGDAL", "assay": "solid phase ELISA; antigen (0.3 ug/mL) captured by anti-GST or penta HIS antibody on plate, antibody 5 to 10 ng/mL", "protocol": "(§1) (1) An ANTI GST antibody or a penta HIS antibody was added to an ELISA plat at 2.5 μg/mL and 50 μL/well, and the plate was allowed to stand at 4° C. overnight to immobilize the antibody. Thereafter, the plate was washed three times with PBST, and Buffer I′ (10 mM NaH₂PO₄.2H₂O, 149.7 mM NaCl, 2.5 mM EDTA 2Na, 0.10% BSA, pH 7.0) was added thereto at 200 μL/well to prepare a plate stored at 4° C. overnight. […] (3) The plate was washed three times with PBST, and 50 μL each of each antigen diluent was added thereto, followed by shaking for 45 minutes. […] (6) The plate was washed three times with PBST, and 15000-fold diluted Peroxidase-conjugated Affinipure F(ab)′2 Fragment Goat Anti-Mouse IgG (H+L) (Jackson) was added thereto at 50 μL/well, followed by shaking for 45 minutes. (7) The plate was washed three times with PBST, TMB Mix (1-step Ultra TMB-ELISA (Thermo Scientific):3% H₂O₂: Phosphate-Citrate buffer (Sigma)=15:0.15:14.85) was added thereto at 100 μL/well, and the mixture was reacted at room temperature for 10 minutes. Thereafter, 1 M H₂SO₄ was added thereto at 100 μL/well to stop the reaction. (8) Absorbance of the reaction solution at 450 nm was measured with a plate reader."}, "[4]": {"target": "T1, fCK18 in apoptosis-induced HepG2 cell …", "assay": "HISCL sandwich immunoassay; K18-624 magnetic microbeads capture, K18-328Fab-ALP detector; fCK18 20.27 ng/mL"}, "[5]": {"target": "T1, fCK18 in apoptosis-induced HepG2 cell …", "assay": "HISCL sandwich immunoassay; K18-624 magnetic microbeads capture, K18-328Fab-ALP detector; fCK18 0.09 ng/mL"}, "rfCK18 (239-396) [6]": {"target": "T2, rfCK18 (239-396)", "assay": "solid phase ELISA, antigen captured through anti-GST or penta HIS antibody", "protocol": "as §1"}, "Peptide 26": {"target": "T3, Peptide 26 (human)", "T3 peptide": "Biotin-IATYRRLLEDGEDFNLGD", "assay": "solid phase ELISA; biotinylated peptide on plate, antibody 2 ug/ml"}, "Peptide 22": {"target": "T4, Peptide 22 (human)", "T4 peptide": "Biotin-RAEGQRQAQEYEALLNIK", "assay": "solid phase ELISA; biotinylated peptide on plate, antibody 2 ug/ml"}, "Peptide 19": {"target": "T5, Peptide 19 (human)", "T5 peptide": "Biotin-MEQLNGILLHLESELAQT", "assay": "solid phase ELISA; biotinylated peptide on plate, antibody 2 ug/ml"}, "Peptide 20": {"target": "T6, Peptide 20 (human)", "T6 peptide": "Biotin-ILLHLESELAQTRAEGQR", "assay": "solid phase ELISA; biotinylated peptide on plate, antibody 2 ug/ml"}, "Peptide 25": {"target": "T7, Peptide 25 (human)", "T7 peptide": "Biotin-VKLEAEIATYRRLLEDGE", "assay": "solid phase ELISA; biotinylated peptide on plate, antibody 2 ug/ml"}, "Peptide 24": {"target": "T8, Peptide 24 (human)", "T8 peptide": "Biotin-ALLNIKVKLEAEIATYRR", "assay": "solid phase ELISA; biotinylated peptide on plate, antibody 2 ug/ml"}, "Peptide 23": {"target": "T9, Peptide 23 (human)", "T9 peptide": "Biotin-QAQEYEALLNIKVKLEAE", "assay": "solid phase ELISA; biotinylated peptide on plate, antibody 2 ug/ml"}, "Peptide 21": {"target": "T10, Peptide 21 (human)", "T10 peptide": "Biotin-SELAQTRAEGQRQAQEYE", "assay": "solid phase ELISA; biotinylated peptide on plate, antibody 2 ug/ml"}, "Peptide 27": {"target": "T11, Peptide 27 (human)", "T11 peptide": "Biotin-LLEDGEDFNLGDALD", "assay": "solid phase ELISA; biotinylated peptide on plate, antibody 2 ug/ml"}}, "note": "Where no end group is shown, it is not given here. The star is where a group is joined. Biotin = O=C1N[C@H]2[C@H](CS[C@H]2CCCCC(=O)*)N1"}
{"binder": "B1", "values": [{"measurement": "S/N ratio", "setting": "[1]", "value": 5.9}, {"measurement": "S/N ratio", "setting": "[2]", "value": 3.8}, {"measurement": "Abs450", "setting": "rfCK18 (239-396) [3]", "value": 0.017}, {"measurement": "S/N ratio", "setting": "[4]", "value": 226}, {"measurement": "S/N ratio", "setting": "[5]", "value": 1.9}, {"measurement": "binding result", "setting": "rfCK18 (239-396) [6]", "value": "no binding (tested: 5 to 10 ng/mL)"}]}
{"binder": "B2", "values": [{"measurement": "Abs450", "setting": "Peptide 26", "value": 0.01}, {"measurement": "Abs450", "setting": "Peptide 22", "value": 0}, {"measurement": "Abs450", "setting": "Peptide 19", "value": 0.01}, {"measurement": "Abs450", "setting": "Peptide 20", "value": 0}, {"measurement": "Abs450", "setting": "Peptide 25", "value": 0.01}, {"measurement": "Abs450", "setting": "Peptide 24", "value": 0.01}, {"measurement": "Abs450", "setting": "Peptide 23", "value": 0.02}, {"measurement": "Abs450", "setting": "Peptide 21", "value": 0.01}, {"measurement": "Abs450", "setting": "Peptide 27", "value": 0}, {"measurement": "Abs450", "setting": "rfCK18 (239-396) [3]", "value": 0.525}]}
